The values that follow come from patent publication US8541367B2, “Plasma anti-diabetic NUCB2 peptide (pladin) and uses thereof” (Landing Biotech, Inc., priority 2009, dated 2013).

Data set [1] relates to post-surgical patients. Nature of the data set: AMCA treatment of post-surgical hyperglycemia in patients. The data set is classed as in vivo, human. To be noted: 10 mg/kg i.v. BID, four post-surgical patients, blood glucose before 10-12 mmol/L.
For data set [2], the system named is db/db mice. Description: Serum nesfatin-1 / pladin in db/db after i.v. plasmin inhibitor (HPLC). The data set is classed as in vivo, mouse. On the procedure:
Hypothalamus in acetic acid supplemented with protease inhibitor cocktail tablets (Roche, Indianapolis, Ind.) was homogenized, sonicated and heated at 95° C. for 15 minutes. The samples were then centrifuged at 13,200 rpm at 4° C. for 30 minutes. The supernatants were finally collected as their protein contents were determined by the Bradford assay (Thermo-Fisher Sci. Rockford, Ill.). Mouse serum was freshly prepared by drawing blood through ophthalmectomy. About […] hypothalamic total proteins or 25 μL serum were analyzed with Waters Delta 600E/2487/717 HPLC system using an analytical C18 reverse phase column (4.6×250 mm/5 μm, Hambon, Zhangjiagang, CN). Nesfatin-1 was eluted with a linear gradient from 20%-40% solvent B (solvent A: water with 0.1% trifluoroacetic acid, solvent B: acetonitrile with 0.1% trifluoroacetic acid) for 20 minutes at the flow rate of 1 ml/minute. The purified nesfatin-1 was used as the standard to determine the retention time and plot the standard curve. The fraction collected at the retention time was sent for the mass spectrometry analysis.
Mouse serum was freshly prepared by drawing blood through ophthalmectomy. The sera of plg^−/−lepr^−/− and db/db mice were directly analyzed with Waters Delta 600E/2487/717 HPLC System using a C18 reverse phase column (4.6×250 mm, 5 μm, Hambon, Zhangjiagang, CN) and eluted with a linear gradient from 20%-40% acetonitrile in 0.1% TFA for 20 minutes at the flow rate of 1 ml/minute (Enriori et al., 2007). Compared with db/db mice, the divergent fractions eluted in plg^−/−lepr^−/− mice were collected for the determination of molecular weight using the Applied Biosystems 4800 Proteomics Analyzer (Applied Biosystems). The MS spectra were acquired in the liner mode at a range of peptide mass from 3,000 to 20,000 Dalton.

Data set [3] has as its system db/db mice. Nature of the data set: Food intake and body weight of db/db mice. The data set is classed as in vivo, mouse.
In data set [4] the test system is db/db mice. Nature of the data set: Blood glucose of db/db mice after injection of test substance. The data set is classed as in vivo, mouse. The conditions noted are these: for active duration of anti-hyperglycemic effect in vivo: i.v. injection, hyperglycemic db/db mice; for anti-hyperglycemic effect (blood glucose): peripheral/i.v. injection, dose not stated.
In data set [5] the test system is mice including db/db. Nature of the data set: Blood insulin in mice after rPladin. It is filed as in vivo, mouse.
In data set [6] the test system is wild-type mice. Description: Intravenous glucose tolerance test (IV-GTT / IGTT) in wild-type mice. It is filed as in vivo, mouse. The conditions noted are these: i.v. glucose 1.5 g/kg. On the procedure:
In the intravenous (i.v.) glucose tolerance test (IV-GTT), mice injected intravenously with 1 mg or 1.5 mg glucose per gram of body weight and placed in clean cages. Blood glucose was measured immediately before and at 5, 10, 20, 30, 60 and 120 minutes after the injection of glucose.

The subject of data set [7] is lean wild-type mice. Nature of the data set: Blood glucose of lean wild-type mice after i.v. injection. The data set is classed as in vivo, mouse. The conditions noted are these: 10 nmol i.v. On the procedure: Without anesthesia, mice were placed into a restricting tube. The testing substance such as nesfatin-1 or rPladin was i.v. injected via mice tail vein with a total volume of 150 μL. After that mice were returned to the cages with food and water available freely. In the i.p. injection experiment, mice without anesthesia were injected with the testing substances directly into the peritoneal with a total volume of 200 μL.

Data set [8] is described as follows: Clearance and half-life of i.v. peptide in circulation. To be noted: for clearance from circulation in plg−/− versus wild-type (plg+/+) mice: i.v. injection. The data set is classed as in vivo, mouse.
The subject of data set [9] is Streptozotocin-induced type-1 diabetic C57BL/6J mice. Nature of the data set: Streptozotocin-induced type-1 diabetic mice, blood glucose. It is filed as in vivo, mouse. On the procedure: Male C57BL/6J mice (10 weeks) were given intraperitoneal injections of Streptozotocin (STZ) in sodium citrate (pH 4.5) on two consecutive days (100 mg/kg/day). Blood glucose was measured by tail vein sampling using the glucose oxidase enzymatic test. Diabetes was defined as a morning blood glucose reading of >16 mM after STZ. When blood glucose levels exceeded 30 mM, diabetic mice were given 16 ng of porcine insulin (Wangbang, Xuzhou, CN) immediately to prevent the blood glucose being dangerous every second day to prevent weight loss while maintaining blood glucose levels within the hyperglycemic range (16-30 mM). Nesfatin-1 (100 μg/mouse) was i.v. injected either alone or combined with s.c. insulin (2 ng/mouse) to STZ-induced type-I diabetic mice.
Male C57BL/6J mice (10 weeks) were intraperitoneally injected with 100 μg/g/day STZ in 100 mmol/L sodium citrate (pH 4.5) on two consecutive days. Blood glucose was measured by tail vein sampling using the glucose oxidase enzymatic test. When the fasting blood glucose reading was over 16 mmol/L after the STZ injection, the mice were considered to be type-1 diabetic. […]

The target in data set [10] is plasmin (Homo sapiens, UniProt P00747). Nature of the data set: Incubation with plasmin in vitro (proteolysis). The data set is classed as biochemical. The conditions noted are these: for proteolysis by plasmin: incubated with plasmin in vitro. The source says:
The recovery of hypothalamic nesfatin-1 in plg^−/−lepr^−/− was consistent to its normalization in food intake and body weight. Fasted mice always had less nesfatin-1 in hypothalamus than their freely feeding counterparties (FIG. 2b). Furthermore, plasminogen deficiency provided a unique approach to study the chronic effect of elevated nesfatin-1 in hyperphagic obese animals, which was impossible for the i.c.v. or i.p. administration due to the short half-time of nesfatin-1. Consequently, agrp and npy were found reduced in plg^−/−lepr^−/−, while pomc was elevated compared with plg^+/+lepr^−/− (FIG. 3), contradicting to the previous report that i.c.v. nesfatin-1 didn't alter the expression of pomc, npy and agrp. Consistent to the present finding, the same group reported the up-regulation of pomc by i.p. nesfatin-1 in NTS recently.
Carefully examining the amino acid sequence of pladin (SEQ ID NO: 23), it has several putative cleavage sites by plasmin (FIG. 11A).

Data set [11] deals with rat. Description: 0-3 h food intake of rat after i.p. and i.c.v. injection. It is filed as in vivo. To be noted: for food intake: 0-3 h.
For data set [12] the following is noted: i.c.v. or i.p. injection; cited from earlier work.
Data set [13] relates to rats. The conditions noted are these: cited from earlier work.
For data set [14] the following is noted: blood-to-brain and brain-to-blood, nonsaturable system; cited from earlier work.
For data set [15] the following is noted: in circulation, Pan et al., 2007, Price et al.; cited from earlier work.
For data set [16], the system named is ob/ob mice. Nature of the data set: Blood lipid analysis in ob/ob mice after i.v. injection. It is filed as in vivo, mouse. The conditions noted are these: 100 ug i.v., 3 hours after injection. On the procedure: One hundred ug Nesfatin-1 was injected into the tail vein of ob/ob mice. Blood samples were taken 3 hours after the injection for lipid analysis.

Data set [17] relates to rats. To be noted: injected directly into the brain of rats; cited from earlier work.
Where [18] appears, read: i.v. plasmin inhibitor to db/db (AMCA 15 mg/day once daily for three days).
The mark [19] stands for this setting: i.c.v. injection (25 pmol), db/db.

Values joined by “and” are separate entries in the source; they are usually repeats but may differ in a detail not shown here. Equal values may be shown once. “Also recorded” adds a separate entry of the source.

plasmin, sequence (P00747 581-810 limits assumed, species assumed): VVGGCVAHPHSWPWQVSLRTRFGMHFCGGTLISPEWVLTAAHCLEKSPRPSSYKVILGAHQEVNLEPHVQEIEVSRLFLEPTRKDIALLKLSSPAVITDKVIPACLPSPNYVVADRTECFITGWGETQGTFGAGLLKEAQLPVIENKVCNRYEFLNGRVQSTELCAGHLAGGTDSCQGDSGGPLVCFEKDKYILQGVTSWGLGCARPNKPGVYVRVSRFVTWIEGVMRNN
plasmin, sequence (P00747 97-580 partner limits assumed, species assumed): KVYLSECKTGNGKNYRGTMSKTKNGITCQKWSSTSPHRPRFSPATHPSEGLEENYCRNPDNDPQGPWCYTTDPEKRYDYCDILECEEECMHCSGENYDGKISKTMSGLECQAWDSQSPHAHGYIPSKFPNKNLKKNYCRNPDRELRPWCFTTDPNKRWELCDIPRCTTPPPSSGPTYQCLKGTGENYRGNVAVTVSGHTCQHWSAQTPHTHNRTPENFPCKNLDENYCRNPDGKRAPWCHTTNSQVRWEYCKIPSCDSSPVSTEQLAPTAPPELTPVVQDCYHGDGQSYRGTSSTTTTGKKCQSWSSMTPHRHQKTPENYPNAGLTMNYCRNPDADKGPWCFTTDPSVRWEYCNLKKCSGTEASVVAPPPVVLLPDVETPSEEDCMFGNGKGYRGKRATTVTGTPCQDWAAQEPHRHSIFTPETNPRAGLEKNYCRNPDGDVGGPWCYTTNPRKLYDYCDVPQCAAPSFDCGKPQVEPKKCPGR

As for `NC[C@H]1CC[C@H](C(=O)O)CC1` [AMCA, tranexamic acid], in data set [1], the “blood glucose after treatment” value is 6.8 to 9.2 mmol/L. The serum pladin entry in [2] (10 minutes after i.v. 15 mg) is “increased”. Besides, in data set [2] (30 minutes after i.v. injection), the “circulating (serum) nesfatin-1” value is given as “increased”. In [3] (setting [18]), the body weight entry was “reduction” and the food intake entry is reported as “reduction”. Moreover, the fasting blood glucose entry in [4] (once-daily administration for 10 weeks since 2 weeks old, db/db) is given as “reduced significantly”.

B1: TKVHNTEPVENARIEPPDTGLYYDEYLKQVIEVLETDPHFREK LQKADIEEIRSGRLSQELDLVSHKVR (protein)
chain: TKVHNTEPVENARIEPPDTGLYYDEYLKQVIEVLETDPHFREKLQKADIEEIRSGRLSQELDLVSHKVR
modifications: amino acids by MALDI-TOF/TOF with Trypsic Peptides
For B1, the insulin entry in [5] (i.c.v. injection, db/db mice) is “could not affect blood glucose and insulin”. Moreover, the blood insulin result in [5] (i.v. administration, mice including db/db) is on record as “did not significantly affect”. For the same molecule, the “uptake of blood sugar” value in data set [6] (10 nmol) was “significantly enhanced the uptake of blood sugar”. Also, the blood glucose result in [7] is “but not in lean wild-type”; in data set [9] (10 nmol per mouse i.v. alone or with s.c. insulin 2 ng/mouse), “lowered by rPladin only when insulin was also subcutaneously injected”; in data set [4] (10 nmol i.v., freely fed db/db), “significantly reduced blood glucose”; in data set [4] (setting [19]), “had no effect on the high levels of blood glucose; also recorded: could not affect blood glucose and insulin”. Further, the half-life in circulation entry in data set [8] (data not shown) is reported as “less than 10 minutes”. Also, the “clearance from circulation in plg−/− versus wild-type (plg+/+) mice” value in [8] was “cleared much slower in plg^−/− than wild-type mice”. The food intake entry in data set [3] (25 pmol i.c.v., db/db mice) is reported as “significantly inhibited food intake”; in data set [11] (25 pmol i.c.v. per rat), “significantly inhibited food intake”; in data set [11] (30 nmol i.p. per rat) it was “significantly inhibited food intake”. The proteolysis by plasmin entry in [10] is given as “rapidly degraded; also recorded: completely digested by plasmin”. Further, the “active duration of anti-hyperglycemic effect in vivo” value in data set [4] was 6 h and > 6 h. In addition, in data set [4] (db/db), the “anti-hyperglycemic effect (blood glucose)” value is listed as “significantly reduced blood glucose”. Further, in [4] (plasmin digested rPladin, db/db (FIG. 11C)), the “anti-hyperglycemic effect after incubation with plasmin” value is on record as “lost”. The “inhibition of food intake relative to nesfatin-1” value in data set [11] (i.v., i.p. and i.c.v. administration) is recorded as “As potent as nesfatin-1; also recorded: same extent of inhibition in food intake as nesfatin-1”.

B2: nesfatin-1: 82 amino-acid fragment of nucb2 (mouse, SEQ ID NO: 18), recombinant, produced in E. coli (protein)
peptide: VPIDVDKTKVHNTEPVENARIEPPDTGLYYDEYLKQVIEVLETDPHFREKLQKADIEEIRSGRLSQELDLVSHKVRTRLDEL
On to B2, for which the “food intake and body weight” value in data set [12] is “inhibits food intake and thereby reduces body weight”. For the same molecule, in data set [6] (100 μg), the “uptake of blood sugar” value was “significantly enhanced the uptake of blood sugar”. Moreover, the “clearance from circulation in plg−/− versus wild-type (plg+/+) mice” value in data set [8] is “cleared much slower in plg^−/− than plg^+/+ mice”. Besides, the neuropsychological effect entry in data set [13] is “increasing anxiety and fear-related behaviors”. Moreover, the “crossing of the blood-brain barrier” value in [14] is “crosses the Blood Brain Barrier”. Moreover, in data set [15], the “half-life of nesfatin-1” value is 9 to 10 min and 10 min. Besides, in data set [3] (25 pmol i.c.v., db/db mice), the food intake entry is on record as “significantly inhibited food intake”. In addition, the blood glucose entry in [9] (100 μg/mouse i.v. alone or with s.c. insulin 2 ng/mouse) is given as “decreased only when nesfatin-1 was injected with s.c. insulin”. For the same molecule, in data set [16], the HDL in blood entry was “unaffected”, the LDL in blood result was “significantly reduced”, the “total cholesterol in blood” value is reported as “significantly reduced” and the triglyceride in blood result was “significantly reduced”. Moreover, in data set [10] (in vitro, FIG. 1b), the “time to complete digestion by plasmin” value is no more than 2 h. For the same molecule, the proteolysis by plasmin entry in data set [10] is listed as “rapidly degraded”. The blood glucose result in data set [4] (10 nmol i.v., freely fed db/db) is listed as “reduced blood glucose”. Besides, the blood glucose entry in data set [4] (100 μg i.v., freely fed db/db) is reported as “significantly reduced blood glucose”. The blood glucose result in data set [4] (setting [19]) is “had no effect on the high levels of blood glucose; also recorded: little diabetic improvement”. The “active duration of anti-hyperglycemic effect in vivo” value in data set [4] was greater than 6 h. Further, in data set [4] (db/db), the “anti-hyperglycemic effect (blood glucose)” value is “significantly reduced blood glucose”.

B3: NUCB2: hypothalamus-secreted protein containing 396 amino acids (protein, UniProt P80303 25-420, looked up)
Nucleobindin-2: VPIDIDKTKVQNIHPVESAKIEPPDTGLYYDEYLKQVIDVLETDKHFREKLQKADIEEIKSGRLSKELDLVSHHVRTKLDELKRQEVGRLRMLIKAKLDSLQDIGMDHQALLKQFDHLNHLNPDKFESTDLDMLIKAATSDLEHYDKTRHEEFKKYEMMKEHERREYLKTLNEEKRKEEESKFEEMKKKHENHPKVNHPGSKDQLKEVWEETDGLDPNDFDPKTFFKLHDVNSDGFLDEQELEALFTKELEKVYDPKNEEDDMVEMEEERLRMREHVMNEVDTNKDRLVTLEEFLKATEKKEFLEPDSWETLDQQQFFTEEELKEYENIIALQENELKKKADELQKQKEELQRQHDQLEAQKLEYHQVIQQMEQKKLQQGIPPSGPAGELKFEPHI
As to B3, in data set [17], the “anorexia and body weight” value is “promotes anorexia and decreases body weight”.
